Molecular target: T1, Aurora kinase A (AURKA) (UniProt O14965 1-403)
T1 construct: also called AURKA-A; STK6
T1 sequence (looked up): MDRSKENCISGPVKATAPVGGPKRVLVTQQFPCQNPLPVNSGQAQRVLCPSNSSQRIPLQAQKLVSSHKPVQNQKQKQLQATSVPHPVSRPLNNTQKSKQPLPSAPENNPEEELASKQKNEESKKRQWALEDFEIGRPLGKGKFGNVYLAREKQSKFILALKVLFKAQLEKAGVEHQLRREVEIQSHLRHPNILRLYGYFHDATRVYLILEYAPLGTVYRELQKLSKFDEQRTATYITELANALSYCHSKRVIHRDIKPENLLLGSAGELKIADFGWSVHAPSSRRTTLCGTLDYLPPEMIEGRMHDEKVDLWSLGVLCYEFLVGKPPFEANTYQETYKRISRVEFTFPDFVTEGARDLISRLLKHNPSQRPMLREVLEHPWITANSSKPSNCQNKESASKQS
Experiment: co-immunoprecipitation from MDA-MB-436 lysate with anti-PRR11 antibody on CNBr sepharose, Western blot
Excerpt: Pelleted cells were lysed using lysis buffer (commercial Bio-Rad) and estimated proteins (Bio-Rad protein assay) and loaded equal amount of protein and separated by SDS-PAGE [28-30]. After transfer, the membranes were probed with commercial rabbit polyclonal antibodies of Actin, C6orf173, AURKA, MELK and PRR11 (Cell sciences, Sigma Aldrich). Commercial mouse monoclonal antibody available for BRRN1 was obtained from Cell Signalling. Commercial rabbit polyclonal antibody of E2F1 obtained from Thermo Scientific. B-Actin (cell signalling) was used as internal control to relatively compare the expression levels of 6-TAGs genes. Secondary antibodies (anti-rabbit and anti-mouse IgG horseradish peroxidase-conjugated) were purchased from GE Healthcare Bio-Sciences AB. Proteins were visualized using an enhanced chemiluminescence (ECL) reagent kit (GE Healthcare Bio-Sciences AB). Densitometry analysis of Western Blot images was done using ImageJ open source software.
For the immunoprecipiation 5 ug of the antibodies (rabbit anti-PRR11 and mouse anti-BRRN1) were coupled to the CN-Br sepharose 4 Fast Flow according manufacturer protocol (GE Healthcare Bio-Sciences AB) and such supports were used to capture the corresponding proteins from the NP40 cell lysates (usually 1×10^7 MDA-MB-436 cells were used for one probe). […]

B1: Proline rich 11 (PRR11/FLJ11029) (other, UniProt Q96HE9 1-360, looked up)
chain: MPKFKQRRRKLKAKAERLFKKKEASHFQSKLITPPPPPPSPERVGISSIDISQSRSWLTSSWNFNFPNIRDAIKLWTNRVWSIYSWCQNCITQSLEVLKDTIFPSRICHRELYSVKQQFCILESKLCKLQEALKTISESSSCPSCGQTCHMSGKLTNVPACVLITPGDSKAVLPPTLPQPASHFPPPPPPPPLPPPPPPLAPVLLRKPSLAKALQAGPLKKDGPMQITVKDLLTVKLKKTQSLDEKRKLIPSPKARNPLVTVSDLQHVTLKPNSKVLSTRVTNVLITPGKSQMDLRKLLRKVDVERSPGGTPLTNKENMETGTGLTPVMTQALRRKFQLAHPRSPTPTLPLSTSSFDEQN
notes: also called endogenous PRR11
  binding result: no binding

From patent publication US20160222458A1 (AGENCY FOR SCIENCE TECHNOLOGY AND RESEARCH, published 2016)
